B1: DP6 (peptide)
peptide: EEEEEDNNDDDEEEWF
notes: designed with the Miyazawa-Jernigan potential, one by three residue design, 16 residues; designed target is residues 369-384 of p53; also called designed peptide DP6; source: synthetic peptide, without caps, at least 95% purity (Toray Research Center Inc.)
B2: DP1 (peptide)
peptide: EHEEIFMESKGWR
notes: designed with the Miyazawa-Jernigan potential, one by one residue design, 13 residues; also called designed peptide DP1; source: synthetic peptide, without caps, at least 95% purity (Toray Research Center Inc.)
B3: DP3 (peptide)
peptide: DEHEEIFMESKGWRDR
notes: designed with the Miyazawa-Jernigan potential, one by one residue design, 16 residues; also called designed peptide DP3; source: synthetic peptide, without caps, at least 95% purity (Toray Research Center Inc.)
B4: DP5 (peptide)
peptide: EEEEDNNDDDEEE
notes: designed with the Miyazawa-Jernigan potential, one by three residue design, 13 residues; also called designed peptide DP5; source: synthetic peptide, without caps, at least 95% purity (Toray Research Center Inc.)
B5: DP2 (peptide)
peptide: EDEEGNDSDEHEE
notes: designed with the Miyazawa-Jernigan potential, one by one residue design, 13 residues; also called designed peptide DP2; source: synthetic peptide, without caps, at least 95% purity (Toray Research Center Inc.)
B6: DP4 (peptide)
peptide: DHIEDEEGNDSDEHEE
notes: designed with the Miyazawa-Jernigan potential, one by one residue design, 16 residues; also called designed peptide DP4; source: synthetic peptide, without caps, at least 95% purity (Toray Research Center Inc.)

Molecular target: T1, CT peptide (residues 367–393 of human p53) labeled with FAM at the N-terminus (human, UniProt P04637 367-393, FAM at the N-terminus)
T1 construct: p53, human, residues 367-393 (C-terminal domain); also called CT peptide of p53; monomeric CT domain of p53; source: synthetic peptide, without caps, at least 95% purity (Toray Research Center Inc.)
T1 sequence (P04637 367-393): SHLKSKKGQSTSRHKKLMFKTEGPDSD
Test: fluorescence polarisation; fluorescence anisotropy; nonlabeled peptide titrated into 5 nM FAM-labeled CT peptide; 25 °C; 20 mM HEPES, 0.5 mM EDTA, 1 mM DTT, 0.2 mg/mL BSA, pH 7.9; in the absence of salt; apparent dissociation constant, one by one binding fit
Details: both partners purified

Kd [µM] | Binder
1.2 | B1
60 | B2
550 | B3
3.2 | B4
23 | B5
9 | B6

From PMC6599006 (Scientific Reports, 2019)
